Biological target: T1, recombinant canine IL-13 (canine, UniProt Q9N0W9 21-131, limits assumed)
T1 sequence (looked up): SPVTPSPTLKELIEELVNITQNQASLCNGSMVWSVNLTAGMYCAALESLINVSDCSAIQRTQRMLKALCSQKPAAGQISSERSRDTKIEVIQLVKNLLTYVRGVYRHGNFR
Test: cell-based or functional assay

Percent inhibition of IL-13 stimulated TF-1 cell proliferation; IL-13 at 10 ng/ml; fusion protein 6.6 ug/ml; refolding condition 1A: 30.9% | Percent inhibition of IL-13 stimulated TF-1 cell proliferation; IL-13 at 10 ng/ml; fusion protein 6.6 ug/ml; refolding condition 1B: 43.7% | Percent inhibition of IL-13 stimulated TF-1 cell proliferation; IL-13 at 10 ng/ml; fusion protein 6.6 ug/ml; refolding condition 1C: 100% | Percent inhibition of IL-13 stimulated TF-1 cell proliferation; IL-13 at 10 ng/ml; fusion protein 6.6 ug/ml; refolding condition 1D: 99.8% | Percent inhibition of IL-13 stimulated TF-1 cell proliferation; IL-13 at 10 ng/ml; fusion protein 6.6 ug/ml; refolding condition 2A: 35.1% | Percent inhibition of IL-13 stimulated TF-1 cell proliferation; IL-13 at 10 ng/ml; fusion protein 6.6 ug/ml; refolding condition 2B: 18% | Percent inhibition of IL-13 stimulated TF-1 cell proliferation; IL-13 at 10 ng/ml; fusion protein 6.6 ug/ml; refolding condition 2C: 16% | Percent inhibition of IL-13 stimulated TF-1 cell proliferation; IL-13 at 10 ng/ml; fusion protein 6.6 ug/ml; refolding condition 2D: 7.5% | Percent inhibition of IL-13 stimulated TF-1 cell proliferation; IL-13 at 10 ng/ml; fusion protein 6.6 ug/ml; refolding condition 3A: 81.3% | Percent inhibition of IL-13 stimulated TF-1 cell proliferation; IL-13 at 10 ng/ml; fusion protein 6.6 ug/ml; refolding condition 3B: 96.3% | Percent inhibition of IL-13 stimulated TF-1 cell proliferation; IL-13 at 10 ng/ml; fusion protein 6.6 ug/ml; refolding condition 3C: 98.9% | Percent inhibition of IL-13 stimulated TF-1 cell proliferation; IL-13 at 10 ng/ml; fusion protein 6.6 ug/ml; refolding condition 3D: 49.9% | Percent inhibition of IL-13 stimulated TF-1 cell proliferation; IL-13 at 50 ng/ml; fusion protein 6.6 ug/ml; refolding condition 1A: 29.4% | Percent inhibition of IL-13 stimulated TF-1 cell proliferation; IL-13 at 50 ng/ml; fusion protein 6.6 ug/ml; refolding condition 1B: 34.6% | Percent inhibition of IL-13 stimulated TF-1 cell proliferation; IL-13 at 50 ng/ml; fusion protein 6.6 ug/ml; refolding condition 1C: 92.3% | Percent inhibition of IL-13 stimulated TF-1 cell proliferation; IL-13 at 50 ng/ml; fusion protein 6.6 ug/ml; refolding condition 1D: 31.7% | Percent inhibition of IL-13 stimulated TF-1 cell proliferation; IL-13 at 50 ng/ml; fusion protein 6.6 ug/ml; refolding condition 2A: 19.7% | Percent inhibition of IL-13 stimulated TF-1 cell proliferation; IL-13 at 50 ng/ml; fusion protein 6.6 ug/ml; refolding condition 2B: 24% | Percent inhibition of IL-13 stimulated TF-1 cell proliferation; IL-13 at 50 ng/ml; fusion protein 6.6 ug/ml; refolding condition 2C: 11.9% | Percent inhibition of IL-13 stimulated TF-1 cell proliferation; IL-13 at 50 ng/ml; fusion protein 6.6 ug/ml; refolding condition 2D: 28.8% | Percent inhibition of IL-13 stimulated TF-1 cell proliferation; IL-13 at 50 ng/ml; fusion protein 6.6 ug/ml; refolding condition 3A: 44.7% | Percent inhibition of IL-13 stimulated TF-1 cell proliferation; IL-13 at 50 ng/ml; fusion protein 6.6 ug/ml; refolding condition 3B: 92.5% | Percent inhibition of IL-13 stimulated TF-1 cell proliferation; IL-13 at 50 ng/ml; fusion protein 6.6 ug/ml; refolding condition 3C: 95.4% | Percent inhibition of IL-13 stimulated TF-1 cell proliferation; IL-13 at 50 ng/ml; fusion protein 6.6 ug/ml; refolding condition 3D: 32.7%
B1: PCaIL-13Rα2-Fc-B9563 (Fc fusion)
chain: MSMLSNAEIKVNPPQDFEIVDPGYLGYLSLQWQPPLFPDNFKECTIEYELKYRNIDSENWKTIITKNLHYKDGFDLNKGIEAKINTLLPAQCTNGSEVRSSWAETTYWTSPQGNRETKIQDMDCVYYNWQYLVCSWKPGMGVHFDTNYQLFYWYEGLDHSAECTDYIKVNGKNMGCRFPYLESSDYKDFYICVNGSSESQPIRPSYFIFQLQNIVKPMPPDYLSLTVKNSEEINLKWNMPKGPIPAKCFIYEIEFTEDGTTWVTTTVENEIQITRTSNESQKLCFLVRSKVNIYCSDDGIWSEWSDEQCWKGDIWKETGSNTKVDKPVAKECECKCNCNNCPCPGCGLLGGPSVFIFPPKPKDILVTARTPTVTCVVVDLDPENPEVQISWFVDSKQVQTANTQPREEQSNGTYRVVSVLPIGHQDWLSGKQFKCKVNNKALPSPIEEIISKTPGQAHQPNVYVLPPSRDEMSKNTVTLTCLVKDFFPPEIDVEWQSNGQQEPESKYRMTPPQLDEDGSYFLYSKLSVDKSRWQRGDTFICAVMHEALHNHYTQISLSHSPGK
